Assay results published in the supplement of paper PMC10567573.

B1: CHCHD6 (parent)
chain: MYKLSSEQFHEAASKMESTIKPRR

Variants of: B1
Assay: protein stability index of a GFP-peptide fusion (GPS, HEK-293T) (PSI 1-6); higher = more stable
Conditions: c terminus: a fixed tail appended
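Also: lentivirally expressed fusions sorted by FACS into six bins by GFP to DsRed ratio, PSI derived from sequencing read proportions per bin multiplied by bin number.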

Protein stability index of substitutions, site by site:
K3: G 4.46 | F 2.55 | P 4.17 | W 2.94 | S 2.47 | Y 3.08 | R 3.6 | H 3.98 | D 3.84 | A 4.56 | C 3.63 | I 2.59 | N 3.68 | M 3.7 | T 3.73 | V 2.7 | Q 4.17 | L 2.66 | E 3.66
F9: H 4.32 | A 4.03 | W 3.23 | K 4.58 | V 3.36 | E 4.43 | G 4.21 | C 3.83 | Y 3.98 | T 4.2 | D 4.82 | R 4.25 | Q 4.12 | I 4.06 | L 3.36 | S 4.81 | N 4.64 | P 4.68 | M 4.28
H10: A 3.66 | T 3.3 | K 4 | L 3.69 | P 4.08 | F 3.44 | E 4.24 | D 4.15 | I 3.08 | V 3.78 | W 2.54 | N 3.41 | Y 3.52 | S 4.15 | C 3.93 | G 4.28 | Q 3.98 | M 3.37 | R 3.82
K15: R 3.72 | T 4.37 | Y 3.5 | I 3.67 | F 3.91 | Q 4.74 | V 4.2 | N 4.42 | M 3.84 | A 3.49 | L 3.73 | S 4.04 | E 4.42 | D 4.18 | G 3.82 | C 3.54 | H 3.75 | W 3.73 | P 3.93
M1: Y 3.56 | W 3.36 | T 4.12 | V 4.03
L4: D 4.53 | I 3.18 | V 3.74 | N 4.23 | T 3.81 | Q 4.32 | K 4.49 | H 3.58 | M 4.27 | W 3.77 | C 3.29 | E 4.34 | A 4.69 | Y 3.53 | S 4.06 | P 4.61 | F 3.5 | R 4.24
T19: D 3.49 | F 3.63 | H 4.29 | A 3.78 | E 3.89 | C 3.67 | G 3.76 | I 3.12
E7: K 3.71 | G 4.39 | S 3.79 | V 3.44 | W 2.56 | R 2.96 | F 3.1 | I 3.1 | Y 2.82 | D 3.7 | L 3.71 | M 2.97 | P 3.64 | Q 3.58 | N 3.58 | A 3.6 | H 3.44 | T 3.2 | C 3.29
E11: W 2.77 | V 3.4 | P 3.6 | T 3.75 | Q 3.69 | A 2.99 | D 3.65 | L 3.26 | F 2.65 | I 3.34 | C 3.06 | S 3.37 | N 3.4 | Y 3.52 | R 3.35 | H 3.22 | K 3.69 | M 3.28 | G 3.8
Q8: K 3.84 | C 2.96 | S 3.74 | A 4.25 | T 4.16 | I 2.84 | G 3.35 | L 3.22 | P 4.39 | R 3.86 | H 3.22 | M 3.39 | D 3.73 | W 2.5 | N 3.86 | F 2.65 | Y 2.94 | V 3.49 | E 3.75
M16: I 3.53 | P 4.31 | G 3.77 | F 3.53 | E 4.55 | K 4.31 | Q 4.47 | D 4.09 | L 3.41 | V 4.46 | H 4.44 | N 4.17 | C 3.58 | W 3.41 | S 4.16 | A 4.17 | T 4.34 | Y 3.45 | R 3.94
A13: Q 3.61 | H 3.9 | G 3.83 | L 3.09 | N 4.24 | D 4.25 | I 2.93 | T 4.02 | P 3.81 | W 2.95 | K 3.86 | F 2.88 | E 4.33 | M 2.59 | C 3.33 | S 3.81 | Y 3.36 | V 4.02 | R 3.66
A12: N 2.9 | L 2.92 | Y 3.39 | K 3.59 | G 3.69 | Q 4.04 | R 3.55 | M 3.14 | W 2.55 | V 3.58 | D 4.17 | P 4.23 | T 3.75 | E 4.56 | C 3.31 | H 4.12 | I 2.88 | S 3.97 | F 3.27
S6: R 3.39 | Q 4.25 | T 4.18 | A 3.64 | M 3.74 | W 2.62 | P 3.78 | E 3.53 | C 3.52 | D 4.03 | Y 3.39 | F 3.46 | K 3.93 | L 3.03 | G 4.26 | V 3.1 | H 3.53 | N 4.23 | I 2.64
Y2: Q 4.25 | E 4.42 | H 4.44 | P 4.77 | A 4.55 | N 4.51 | K 4.7 | I 3.98 | F 4.01 | C 3.53 | T 3.29 | G 4.48 | W 2.58 | L 4.34 | V 4.05 | M 4.45 | R 4.7 | D 4.83 | S 4.5
S5: H 4.14 | I 2.65 | C 3.14 | N 4.06 | E 4.24 | R 3.94 | T 3.64 | K 3.56 | P 3.17 | L 3.02 | M 3.87 | V 3.43 | Y 2.72 | F 2.82 | G 4.68 | A 4.02 | D 4.06 | W 3.17 | Q 3.78
S14: T 3.81 | H 3.9 | N 3.78 | M 3.47 | D 3.61 | V 4.11 | I 2.86 | R 3.48 | F 3.05 | Y 2.83 | L 3.1 | P 3.82 | Q 4.24 | C 3.29 | A 3.56 | K 3.68 | E 4.12 | W 3.18 | G 3.87
S18: E 3.71 | K 3.58 | Q 3.47 | A 4.41 | Y 3.42 | L 3.4 | P 3.8 | R 4.13 | C 3.99 | N 3.97 | T 4.1 | I 2.68 | G 3.7 | V 3.77 | W 2.98 | F 2.78 | D 4.24 | M 3.31 | H 4.51
E17: H 2.92 | W 2.4 | P 3.15 | D 4 | I 3.85 | V 3.27 | Y 3 | K 2.73 | C 3.46 | S 3.71 | G 4.03 | L 3.08 | F 2.69 | R 3.29 | A 3.24 | N 3.57 | M 3.55 | Q 3.71 | T 3.19
